Test results taken from the DeepSol protein solubility set.

Assay: soluble on expression in E. coli; label from the status in PepcDB or PDB records

Sequence | soluble on expression in E. coli
MGHHHHHHSHMRRAELAGLKTMAWVPAESAVEELMPRLLPVEPCDLTEGFDPSVPPRTPQEYLRRVQIEAAQCPDVVVAQIDPKKLKRKQSVNISLSGCQPAPEGYSPTLQWQQQQVAQFSTVRQNVNKHRSHWKSQQLDSNVTMPKSEDEEGWKKFCLGEKLCADGAVGPATNESPGIDYVQIGFPPLLSIVSRMNQATVTSVLEYLSNWFGERDFTPELGRWLYALLACLEKPLLPEAHSLIRQLARRCSEVRLLVDSKDDERVPALNLLICLVSRYFDQRDLADEPS | not soluble
MGHHHHHHSHMSLKGKRIGFGFTGSHCTYEEVMPHLEKLIAEGAEVRPVVSYTVQSTNTRFGEGAEWIKKIEEITGFKAINSIVGAEPLGPKIPLDCMVIAPLTGNSMSKFANAMTDSPVLMAAKATLRNGKPVVLAVSTNDALGLNGVNLMRLMATKNIYFVPFGQDAPEKKPNSMVARMELLEDTVLEALQGKQLQPVVVEKFRYMN | soluble
MGHHHHHHSHMTDDKDVLRDVWFGRIPTCFTLYQDEITEREAEPYYLLLPRVSYLTLVTDKVKKHFQKVMRQEDISEIWFEYEGTPLKWHYPIGLLFDLLASSSALPWNITVHFKSFPEKDLLHCPSKDAIEAHFMSCMKEADALKHKSQVINEMQKKDHKQLWMGLQNDRFDQFWAINRKLMEYPAEENGFRYIPFRIYQTTTERPFIQKLFRPVAADGQLHTLGDLLKEVCPSAIDPEDGEKKNQVMIHGIEPMLETPLQWLSEHLSYPDNFLHISIIPQPTD | not soluble
MGHHHHHHSHMTPGVVHASPPQSQRVPRQAPCEWAIRNIGQKPKEPNCHNCGTHIGLRSKTLRGTPNYLPIRQDTHPPSVIFCLAGVGVPGLPV | not soluble
MGHHHHHHSHMTSGPGGRSAAAGGRKENHQWYVCNREKLCESLQAVFVQSYLDQGTQIFLNNSIEKSGWLFIQLYHSFVSSVFSLFMSRTSINGLLGRGSMFVFSPDQFQRLLKINPDWKTHRLLDLGAGDGEVTKIMSPHFEEIYATELSETMIWQLQKKKYRVLGINEWQNTGFQYDVISCLNLLDRCDQPLTLLKDIRSVLEPTRGRVILALVLPFHPYVENGGKWEKPSEILEIKGQNWEEQVNSLPEVFRKAGFVIEAFTRLPYLCEGDMYNDYYVLDDAVFVLKPV | not soluble
MGHHHHHHSHMVETVSTKNTKNWHAPVVPAAWEAEAGESLEPWRWRLQWAGIASLHSSLGDRARLRLKKKKKKRKGHFPIQKSRKYVPFLKGICSSTPVGISRQVGQETEKRNKTQRQSIEKERGAQGTGALSLRGPAGALVSEFPQYLLIIIFTILARGV | not soluble
MGHHHHHHSHMVKPLSPLNIQKLARHHGPRLWSQLLGRLRQVGHVGSGVRDQPGQHGETPISTKNTKISQASWPTPVVPATREAEVEGSLKSWGQGCSELLSHHCTPAWATVRPCLKKKRKMKQKLTCLLPPN | not soluble
MGHHHHHHSHMVTMEELREMDCSVLKRLMNRDENGGGAGGSGSHGTLGLPSGGKCLLLDCRPFLAHSAGYILGSVNVRCNTIVRRRAKGSVSLEQILPAEEEVRARLRSGLYSAVIVYDERSPRAESLREDSTVSLVVQALRRNAERTDICLLKGGYERFSSEYPEFCSKTKALAAIP | not soluble
MGHHHHHHSHNLGPRLTPLLQEEDSHQRLLMGLMVSELKDHFLRHLQGVEKKKIEQMVLDYISKLLDLICHIVETNWRKHNLHSWVLHFNSRGSAAEFAVFHIMTRILEATNSLFLPLPPGFHTLHTILGVQCLPLHNLLHCIDSGVLLLTETAVIRLMKDLDNTEKNEKLKFSIIVRLPPLIGQKICRLWDHPMSSNIISRNHVTRLLQNYKKQPRNSMINKSSFSVEFLPLNYFIEILTDIESSNQALYPFEGHDNVDAEFVEEAALKHTAMLLGL | not soluble
MGHHHHHHSHNTALVLCPFKDSGCKHRCPKLAMARHVEESVKPHLAMMCALVSRQRQELQELRRELEELSVGSDGVLIWKIGSYGRRLQEAKAKPNLECFSPAFYTHKYGYKLQVSAFLNGNGSGEGTHLSLYIRVLPGAFDNLLEWPFARRVTFSLLDQSDPGLAKPQHVTETFHPDPNWKNFQKPGTWRGSLDESSLGFGYPKFISHQDIRKRNYVRDDAVFIRAAVELPRKILS | not soluble
MGHHHHHHSHPPERQINLSNIRAGNLARRAAATQPDAKDTPDEPWAFPAREFLRKKLIGKEVCFTIENKTPQGREYGMIYLGKDTNGENIAESLVAEGLATRREGMRANNPE | not soluble
MGHHHHHHSHRKRPLLAPLCNGLINSYEDKSNDFVCPICFDMIEEAYMTKCGHSFCYKCIHQSLEDNNRCPKCNYVVDNIDHLYPNFLVNELILKQKQRFEEKRFKLDHSVSSTNGHRWQIFQDWLGTDQDNLDLANVNLMLELLVQKKKQLEAESHAAQLQILMEFLKVARRNKREQLEQIQKELSVLEEDIKRVEEMSGLYSPVSED | not soluble
MGHHHHHHSHRNLDSRTFITIGDRNFEVEADDLVTISELGRGAYGVVEKVRHAQSGTIMAVKRIRATVNSQEQKRLLMDLDINMRTVDCFYTVTFYGALFREGDVWICMELMDTSLDKFYRKVLDKNMTIPEDILGEIAVSIVRALEHLHSKLSVIHRDVKPSNVLINKEGHVKMCDFGISGYLVDSVAKTMDAGCKPYMAPERINPELNQKGYNVKSDVWSLGITMIEMAILRFPYESWGTPFQQLKQVVEEPSPQLPADRFSPEFVDFTAQCLRKNPAERMSYLELMEHPFF | soluble
MGHHHHHHSHRRQHPLPLLLLRHLRPQAHREPPQVYTSSQPLRVGYYETDNYTMPSPAMRRAVLETKQSLEAAGHTLVPFLPSNIPHALETLSTGGLFSDGGHTFLQNFKGDFVDPCLGDLVSILKLPQWLKGLLAFLVKPLLPRLSAFLSNMKSRCTAKP | not soluble
MGHHHHHHSHVEIIQKVVVKQILTEASKQELIEYYTEQKRQIEQECDQLHFEQKKMERKSKFQPERVADYFTHELDIRREKKKLIQFQMEQLEVLELGSEIREREMETIIDVQVGDKWDKSIFDKTIVVKDGIIVEIR | soluble
MGHHHHHHSHVLPIYAYGHAVGKSVTGGYVYRGCESPNLNGLYIFGDFMSGRLMALQEDRKNKKWKKQDLCLGSTTSCAFPGLISTHSKFIISFAEDEAGELYFLATSYPSAYAPRGSIYKFVDPSRRAPPGKCKYKPVPVRTKSKRIPFRPLAKTVLDLLKEQSEKAARKSSSATLASGPAQGLSEKGSSKKLASPTSSKNTLRGPGTKKKARVGPHVRQGKRRKSLKSHSGRMRPSAEQKRAGRSLP | not soluble
MGHVVKVALLGLGEVGEKFAEHFLEKIQEDRANVEIVAVAHRDLESPVALGFVHSKVPVFKDAMEVVTLGAKVDIIFDLTGDPEVRRKLRIALQESHNQHTVIAPEVVAHLLWNFFGEGELPRSNRTGY | soluble
MGISDNDVQKQLRHMMAFIEQEANEKAEEIDAKAEEEFNIEKGRLVQQQRQKIMEFFEKKEKQVELQRKIQASNSLNAGRLRCLKAREDHIGAVLDEARSNLSRISGDAARYPAILKGLVMQGLLQLLEKEVVLRCREKDLRLVEQLLPECLDGLQKEWGSTTKVVLDKQNFLPSESAGGVELSARAGKIKVSSTLESRLELIANQIVPQVRTALFGPNPNRSFFD | not soluble
MGISRDSWHKRYKTGATQPVPHKKRKFELGRPAANTKIGAHRVRLVRTRGGNEKYRALRLDSGNFSWASEQTTRKTRIVDTMYNATNNELVRTKTLVKGAIISVDAAPFRQWYEAHYALPLARKKNAKLSEEDNAILNKKRSHHTMKKYTERQKTAAVDALLIEQFNTGRLLARISSSPGQVGQANGYILEGKELDFYLRKIRAKKAK | not soluble
MGITREELRALVREVVREAVGSLNSSPAQASNQASKPAPPAPPPRATVADQMGLEPTGPRAVEGRNRTETVRLTDDKDLDTFVRKLLRLFESPKTRADLKAGRLRFRLAPGSGAAMANGQAQVTHRIDSGAVTERHIADLAGGTLVLGPRAVLTPLAREKARTLGIVIEKERR | not soluble
MGKATYTVTVTNNSNGVSVDYETETPMTLLVPEVAAEVIKDLVNTVRSYDTENEHDVCGW | soluble
